Test results: the supplement of paper PMC7877785
± gives the uncertainty stated by the source.

Test: self-splicing fitness, log relative to wild type (ln ratio); higher = more splicing; Tetrahymena group I intron in knt gene, E. coli kanamycin selection, DiMSum; sequences stand for … in CUCUCU…GGAGGGAAAAGUUAUCAGGCAUGCACCUGGUAGCUAGUCUUUAAACCAAUAGAUUGCAUCGGUUUAAAAGGCAAGACCGUCAAAUUGCGGGAAAGGGGUCAACAGCCGUUCAGUACCAAGUCUCAGGGGAAACUUUGAGAUGGCCUUGCAAAGGGUAUGGUAAUAAGCUGACGGACAUGGUCCUAACCACGCAGCCAAGUCCUAAGUCAACAGAUCUUCUGUUGAUAUGGAUGCAGUUCACAGACUAAAUGUCGGUCGGGGAAGAUGUAUUCUUCUCAUAAGAUAUAGUCGGACCUCUCCUUAAUGGGAGCUAGCGGAUGAAGUGAUGCAACACUGGAGCCGCUGGGAACUAAUUUGUAUGCGAAAGUAUAUUGAUUAGUUUUGGAGUACUCGUGGUCG
How it was run: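 DiMSum derived fitness as the error-weighted combination of fold changes across replicates, kanamycin versus no kanamycin, normalised to wild type. E. coli BL21(DE3) held the library, which randomised all eight P1ex-region intron nucleotides within the knt kanamycin-resistance gene on pET-22b(+). Six replicate transformations grew overnight at 37°C or 30°C on LB agar with or without 25 μg/mL kanamycin, also containing 100 μg/mL carbenicillin, 50 μM IPTG and 0.2% rhamnose, and pooled colonies were amplicon-sequenced on an Illumina HiSeq 2500.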

| Sequence | self-splicing fitness (ln) (30 °C) | self-splicing fitness (ln) (37 °C) |
| --- | --- | --- |
| AAUGAGCAAUAUUACGGCCC | -1.23 ± 0.47 | -1.48 ± 0.37 |
| AAGUAGCAAUAUUACGGGCA | -1.25 ± 0.088 | -0.149 ± 0.098 |
| GGUCAGCAAUAUUACGCUUG | -0.955 ± 0.07 | -0.556 ± 0.096 |
| UGCGAGCAAUAUUACGUUGC |  | -1.17 ± 0.33 |
| GUCUAGCAAUAUUACGCAUC | -0.727 ± 0.13 | 0.171 ± 0.14 |
| ACUCAGCAAUAUUACGUGUC | -3.74 ± 0.16 | -2.21 ± 0.17 |
| CUCGAGCAAUAUUACGCACA | -4.64 ± 0.3 | -1.94 ± 0.19 |
| UACCAGCAAUAUUACGCCCC | -2.68 ± 0.5 | -0.87 ± 0.4 |
| AGUAAGCAAUAUUACGCCAG | -3.63 ± 0.33 | -1.58 ± 0.29 |
| CAACAGCAAUAUUACGCAGU | -2.78 ± 0.19 | -3.62 ± 0.3 |
| ACAAAGCAAUAUUACGAUGG | -1.44 ± 0.08 | -0.402 ± 0.1 |
| UAGGAGCAAUAUUACGUUGU | -3.31 ± 0.26 | -2.35 ± 0.23 |
| CAUUAGCAAUAUUACGCUCC |  | -1.18 ± 0.38 |
| ACCGAGCAAUAUUACGAUAC | -4.32 ± 0.36 | -2.09 ± 0.27 |
| UAGUAGCAAUAUUACGUUCA | -0.66 ± 0.15 | 0.327 ± 0.15 |
| CAUGAGCAAUAUUACGGUGU | -4.27 ± 0.28 | -2.54 ± 0.23 |
| CUCGAGCAAUAUUACGGCGG | -1.2 ± 0.12 | -0.858 ± 0.2 |
| AAAGAGCAAUAUUACGUGUG | -3.84 ± 0.18 | -2.57 ± 0.19 |
| GUAAAGCAAUAUUACGCAGA | -2.79 ± 0.22 | -0.446 ± 0.17 |
| UGAUAGCAAUAUUACGGGAC | -4.2 ± 0.31 | -2.54 ± 0.25 |
| GUAAAGCAAUAUUACGCGGC | -2.96 ± 0.21 | -0.672 ± 0.18 |
| CCUUAGCAAUAUUACGGGUU |  | -1.5 ± 0.21 |
| GUUUAGCAAUAUUACGACUC | 0.0633 ± 0.12 | 0.248 ± 0.15 |
| UGGGAGCAAUAUUACGCAGC |  | -3.01 ± 0.49 |
| CGAGAGCAAUAUUACGCACU | -2.06 ± 0.2 | -1.89 ± 0.23 |

| Sequence | self-splicing fitness (ln) (30 °C) | self-splicing fitness (ln) (37 °C) |
| --- | --- | --- |
| AAGGAGCAAUAUUACGGUCG | -2.96 ± 0.22 |  |
| ACAAAGCAAUAUUACGCCGG | -0.52 ± 0.065 | -0.282 ± 0.083 |
| UGGCAGCAAUAUUACGUGAA | -0.78 ± 0.058 | -0.431 ± 0.084 |
| AAUGAGCAAUAUUACGAGAA | -2.17 ± 0.23 | -2.03 ± 0.32 |
| UACAAGCAAUAUUACGCGUA | -2.92 ± 0.24 | -2.76 ± 0.33 |
| AAGUAGCAAUAUUACGACGC | -0.792 ± 0.12 | 0.204 ± 0.14 |
| GUUUAGCAAUAUUACGGUAG | -3.53 ± 0.29 | -1.72 ± 0.19 |
| ACAGAGCAAUAUUACGGCAC |  | -2.62 ± 0.44 |
| UAGUAGCAAUAUUACGUUCC | -4.21 ± 0.35 | -0.984 ± 0.19 |
| UCUCAGCAAUAUUACGUAAG | -2.07 ± 0.12 | -1.17 ± 0.13 |
| AUUUAGCAAUAUUACGGUUA | -0.84 ± 0.16 | -0.183 ± 0.13 |
| UGUAAGCAAUAUUACGACAA | -0.378 ± 0.16 | -0.666 ± 0.14 |
| UCAUAGCAAUAUUACGGAUA | -1.51 ± 0.23 | -2.59 ± 0.33 |
| GGCCAGCAAUAUUACGAAGA | -3.15 ± 0.22 | -2.85 ± 0.27 |
| AUACAGCAAUAUUACGGCCG | -1.33 ± 0.16 | -1.14 ± 0.23 |
| UACGAGCAAUAUUACGCCCU | -3.96 ± 0.47 |  |
| UAACAGCAAUAUUACGUUCA | -0.481 ± 0.049 | 0.0141 ± 0.07 |
| GCGAAGCAAUAUUACGAACG | -1.63 ± 0.16 | -0.889 ± 0.21 |
| GACAAGCAAUAUUACGCUAG | -2.28 ± 0.081 | -1.36 ± 0.089 |
| GGCUAGCAAUAUUACGCUGA | -1.18 ± 0.12 | -0.413 ± 0.13 |
| AGGGAGCAAUAUUACGGACC | -2.79 ± 0.36 | -1.37 ± 0.36 |
| UGUUAGCAAUAUUACGUAUG | -0.871 ± 0.13 | -0.234 ± 0.17 |
| CUUUAGCAAUAUUACGUUAG | -2.49 ± 0.18 | -2.32 ± 0.26 |
| UCAGAGCAAUAUUACGGUCU | -1.95 ± 0.2 | -2.43 ± 0.39 |
| AUUAAGCAAUAUUACGUUUU | -2.27 ± 0.11 | -1.81 ± 0.12 |

| Sequence | self-splicing fitness (ln) (30 °C) | self-splicing fitness (ln) (37 °C) |
| --- | --- | --- |
| UAACAGCAAUAUUACGGGAA | -1.76 ± 0.13 | -1.35 ± 0.11 |
| ACGCAGCAAUAUUACGCUUU | -1.69 ± 0.079 | -1.15 ± 0.11 |
| AUUCAGCAAUAUUACGGGGG | -2.77 ± 0.15 | -2.14 ± 0.16 |
| GCGCAGCAAUAUUACGAUAU | -1.18 ± 0.078 | -0.433 ± 0.1 |
| GCCCAGCAAUAUUACGUUAG | -3.81 ± 0.14 | -2.26 ± 0.16 |
| GUGAAGCAAUAUUACGUUGU | -2.68 ± 0.17 | -1.63 ± 0.15 |
| AUUAAGCAAUAUUACGCUAC | -2.45 ± 0.43 | -3.4 ± 0.35 |
| AGUUAGCAAUAUUACGUACA | -1.06 ± 0.09 | -0.266 ± 0.12 |
| AAACAGCAAUAUUACGCGUA | -1.64 ± 0.093 | -0.734 ± 0.083 |
| ACUUAGCAAUAUUACGCUAC | -2.59 ± 0.34 | -1.9 ± 0.33 |
| UGGAAGCAAUAUUACGGCGC | -1.23 ± 0.22 | -0.241 ± 0.22 |
| CUUGAGCAAUAUUACGGUUG | -2.28 ± 0.097 | -1.95 ± 0.14 |
| UAUCAGCAAUAUUACGUGUG | -0.333 ± 0.058 | 0.407 ± 0.076 |
| GAUGAGCAAUAUUACGGUCG | -2.37 ± 0.12 | -0.405 ± 0.12 |
| GCGUAGCAAUAUUACGCCUG | -4.08 ± 0.42 | -3.13 ± 0.37 |
| UGGGAGCAAUAUUACGUAGG | -3.24 ± 0.31 | -1.93 ± 0.32 |
| AGGAAGCAAUAUUACGGAGU | -2.89 ± 0.17 | -1.7 ± 0.22 |
| UGCGAGCAAUAUUACGGAGU |  | -2.08 ± 0.3 |
| CUCAAGCAAUAUUACGUCAU | -2.99 ± 0.14 | -2.55 ± 0.14 |
| UAGUAGCAAUAUUACGUAGC | -3.52 ± 0.22 | -1.37 ± 0.2 |
| GAUAAGCAAUAUUACGUUCG | -1.42 ± 0.098 | -1.05 ± 0.14 |
| UUUUAGCAAUAUUACGAACU | -1.75 ± 0.34 | -0.164 ± 0.23 |
| AUGAAGCAAUAUUACGUAAU | -1.57 ± 0.075 | -0.42 ± 0.094 |
| GUUUAGCAAUAUUACGAGGU | -3.03 ± 0.2 | -2.03 ± 0.2 |
| CCCAAGCAAUAUUACGGGGA | -2.82 ± 0.13 | -1.62 ± 0.09 |

| Sequence | self-splicing fitness (ln) (30 °C) | self-splicing fitness (ln) (37 °C) |
| --- | --- | --- |
| AAUGAGCAAUAUUACGCGCG | -2.52 ± 0.18 | -1.9 ± 0.2 |
| UAGCAGCAAUAUUACGAUAC | -4.05 ± 0.4 | -2.2 ± 0.33 |
| UAUCAGCAAUAUUACGCAAG | -0.949 ± 0.074 | 0.273 ± 0.097 |
| AGGGAGCAAUAUUACGGGCA | -3.79 ± 0.43 | -1.46 ± 0.34 |
| GGGCAGCAAUAUUACGCAAC | -0.812 ± 0.16 | -1.56 ± 0.13 |
| UCCAAGCAAUAUUACGGUGU | -0.788 ± 0.047 | 0.18 ± 0.066 |
| CCUAAGCAAUAUUACGCUAU | -4.71 ± 0.39 | -2.35 ± 0.24 |
| UAACAGCAAUAUUACGUUGG | -1.67 ± 0.083 | -0.828 ± 0.096 |
| GCAAAGCAAUAUUACGAUGU | -2.89 ± 0.15 | -1.93 ± 0.17 |
| UGCCAGCAAUAUUACGUCGA | -1.17 ± 0.088 | -0.949 ± 0.11 |
| UAGAAGCAAUAUUACGGCGC | -1.94 ± 0.19 | -0.275 ± 0.3 |
| UUAUAGCAAUAUUACGGUUG | -1.32 ± 0.12 | -0.629 ± 0.15 |
| UCCUAGCAAUAUUACGCACG | -3.34 ± 0.37 | -1.87 ± 0.47 |
| AGGAAGCAAUAUUACGAGUA | -2.59 ± 0.15 | -2.21 ± 0.17 |
| GAGAAGCAAUAUUACGUUAG | -2.54 ± 0.19 | -2.08 ± 0.19 |
| UAGUAGCAAUAUUACGUUUU | -3.14 ± 0.14 | -2.27 ± 0.16 |
| UCACAGCAAUAUUACGCUCA | -1.61 ± 0.14 | -0.171 ± 0.12 |
| GCUGAGCAAUAUUACGAUUU | -1.04 ± 0.08 | -0.288 ± 0.096 |
| UCGAAGCAAUAUUACGUGGC |  | -2.78 ± 0.23 |
| GAUCAGCAAUAUUACGGGCA | -0.237 ± 0.098 | -0.574 ± 0.11 |
| UUACAGCAAUAUUACGACAC | -3.53 ± 0.43 |  |
| UACGAGCAAUAUUACGGUGC | -3.46 ± 0.4 | -2.43 ± 0.48 |
| CCAUAGCAAUAUUACGAAUU | -3.3 ± 0.23 | -2.51 ± 0.39 |
